From patent publication US20170218430 come the findings set out here.

This data set relates to methylarginine peptide (SEQ ID NO:1).

On to “TbJmJ1 fusion protein (MBP-JmJ1, Jumonji Fusion Protein 1)”, for which the “demethylation of the peptide, read as gain of anti-RG signal on slot blot (6 hours, 30 C)” value is “giving a positive reaction with anti-RG in a dose-dependent manner”.

Regarding “TbJmJ2 fusion protein (MBP-JmJ2, Jumonji Fusion Protein 2)”, the “demethylation of the peptide, read as gain of anti-RG signal on slot blot (6 hours, 30 C)” value was “giving a positive reaction with anti-RG in a dose-dependent manner” and the “demethylation of the peptide, read as loss of anti-mRG signal on slot blot (20 hours, 22.5 C)” value is “indicates a concentration-dependent decrease in the methylation status of the GmRG peptide”.
